Data from US20070020717A1.

Legend:
Details in all cases: chains peptide; modification not given
[1] = biological target: T1, GST-PDZ fusion protein, PDZ domain of MAST2 (Accession no. AB047005), Q6P0Q8; test: ELISA (G Assay)
T1 chain: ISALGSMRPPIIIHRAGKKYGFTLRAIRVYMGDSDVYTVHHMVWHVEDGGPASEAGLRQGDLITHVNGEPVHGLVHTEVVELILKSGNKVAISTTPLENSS

[2] = biological target: T2, GST-PDZ fusion protein, PDZ domain of SHANK1 (GID 7025450), D3YZU1; test: ELISA
T2 chain: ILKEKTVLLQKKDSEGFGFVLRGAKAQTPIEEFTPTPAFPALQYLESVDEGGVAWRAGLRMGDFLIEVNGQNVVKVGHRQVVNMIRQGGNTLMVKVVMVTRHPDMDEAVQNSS

[3] = biological target: T3, GST-PDZ fusion protein, PDZ domain of SHANK2 (GID 6049185), Q9UPX8; test: ELISA
T3 chain: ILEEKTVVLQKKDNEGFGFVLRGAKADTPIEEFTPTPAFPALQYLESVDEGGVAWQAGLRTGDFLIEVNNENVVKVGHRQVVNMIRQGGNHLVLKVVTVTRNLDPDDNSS

RRRSGLDDINPTVLLKERSTEL [Peptide 1957]
EC50 [1]: 23.1 µM | EC50 [2]: 66.3 µM | EC50 [3]: 62 µM
